The source of these data is US20030119727A1 (Genentech, published 2003).

Experiment [1] concerns the target T1, recombinant human Factor VIIa (human, UniProt P08709 61-212; P08709 213-466).
T1 chain 1: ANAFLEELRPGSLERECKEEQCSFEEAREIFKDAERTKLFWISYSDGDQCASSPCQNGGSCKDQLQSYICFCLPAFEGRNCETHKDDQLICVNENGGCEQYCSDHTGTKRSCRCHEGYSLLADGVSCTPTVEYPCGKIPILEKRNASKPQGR
T1 chain 2: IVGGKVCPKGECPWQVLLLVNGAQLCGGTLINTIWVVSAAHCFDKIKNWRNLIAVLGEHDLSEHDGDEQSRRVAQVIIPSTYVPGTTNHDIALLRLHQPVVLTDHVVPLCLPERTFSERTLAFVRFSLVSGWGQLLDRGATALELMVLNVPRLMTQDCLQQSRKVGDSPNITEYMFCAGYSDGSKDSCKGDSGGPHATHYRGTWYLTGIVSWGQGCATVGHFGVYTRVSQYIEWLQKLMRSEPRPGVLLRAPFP
Briefly: competition ELISA.

For experiment [2], the target named is T2, recombinant human Factor VIIa (human, UniProt P08709 61-212; P08709 213-466).
T2 construct: Immobilized directly on microtiter plates at 2 ug/ml; also called FVIIa
T2 sequence (looked up) 1: T1 chain 1
T2 sequence (looked up) 2: T1 chain 2
The experiment in a line: FVIIa Binding ELISA, competition with 20 nM TF147b on immobilized FVIIa. On the procedure: FVIIa Binding ELISA—The ability of peptides to compete with biotinylated versions of TF76 (e.g. TF147b, or other peptides described herein that could be biotinylated as described) for binding to FVIIa was monitored using a FVIIa Binding ELISA or a TF-FVIIa Binding ELISA. Microtiter plates were coated overnight with 2 μg/ml recombinant human FVIIa or 2 μg/ml TF₁₋₂₄₃ (Paborsky, L. R. et al. (1991) J. Biol. Chem. 266: 21911) in 50 mM ammonium bicarbonate pH 9 at 4° C.; all other steps were performed at room temperature. Plates were then blocked with 1% BSA in Assay Buffer (50 mM HEPES, pH 7.2, 5 mM CaCl₂, 150 mM NaCl). […] The microtiter plate was washed 3 times with Assay Buffer plus 0.05% Tween 20 and the biotinylated-peptide bound was detected with a Streptavidin/HRP conjugate (Streptavidin-POD, Roche Molecular Biochemicals). The amount of HRP bound was measured using ABTS/H₂O₂ substrate (Kirkegaard and Perry Laboratories) and monitoring the absorbance at 405 nm. The absorbance at 405 nm was plotted versus the concentration of peptide originally added to the well. Sigmoidal curves were fit to a four parameter equation by nonlinear regression analysis (Marquardt, J. Soc. Indust. Appl. Math. 11:431-441 (1963); the concentration of each peptide required to give a half-maximal signal in the assay was calculated from the curves and is referred to as the IC₅₀ value. […]

Experiment [3] deals with T2, recombinant human Factor VIIa. The experiment in a line: phage binding to coated wells.
Experiment [4] has as its target T3, BSA (UniProt P02769 25-607).
T3 construct: Control coating; also called bovine serum albumin
The experiment in a line: phage binding to coated wells.

Positions of bridges follow the written chain, without caps; N, C: chain ends. No end group written: not given here.

By IC50 is commonly meant the concentration needed to halve the response being measured.

T3 sequence (P02769 25-607 limits assumed): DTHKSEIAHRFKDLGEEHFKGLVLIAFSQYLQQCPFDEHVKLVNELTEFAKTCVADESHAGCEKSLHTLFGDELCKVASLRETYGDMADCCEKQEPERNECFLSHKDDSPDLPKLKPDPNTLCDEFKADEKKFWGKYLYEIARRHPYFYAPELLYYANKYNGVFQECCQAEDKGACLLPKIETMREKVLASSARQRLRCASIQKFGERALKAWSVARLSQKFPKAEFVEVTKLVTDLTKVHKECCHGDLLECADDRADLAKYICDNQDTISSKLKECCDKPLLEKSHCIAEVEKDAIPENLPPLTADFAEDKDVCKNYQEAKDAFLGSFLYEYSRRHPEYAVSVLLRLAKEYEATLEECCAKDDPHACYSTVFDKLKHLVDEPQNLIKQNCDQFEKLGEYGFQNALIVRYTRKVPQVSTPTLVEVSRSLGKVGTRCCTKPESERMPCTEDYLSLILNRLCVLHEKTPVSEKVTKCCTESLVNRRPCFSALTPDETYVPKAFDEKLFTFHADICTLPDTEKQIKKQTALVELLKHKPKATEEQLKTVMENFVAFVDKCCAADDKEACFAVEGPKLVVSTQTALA

Take Ac-ALCDDPRVDRWYCQFVEG-NH2 (disulfide 3-13 (inferred)) [peptide TF76 (Ac-ALCDDPRVDRWYCQFVEG-NH2)]: the IC50 in experiment [1] came to 21 nM. As to SQAQRRAVGALCDNPRIDRWYCQFVEGGGGSSG (Fc fusion, cysteine pairing not given here; also: fused to human IgG1 Fc, dimer, not shown: Fc portion of the human IgG1) [TF151-Fc fusion], the IC50 in experiment [2] is 3 nM.

B1: Phage bearing the TF56 peptide sequence EAALCDDPRLDRWYCIFAGE (Pool E clone, polyvalent phage display) (peptide)
peptide: EAALCDDPRLDRWYCIFAGE
modifications: not fully specified (bridges); cysteine pairing not given here; also: displayed on phage, coat protein fusion partner not given here
notes: also called this clone
As to B1, the binding result was “binds” in experiment [3] and “no binding” in experiment [4].
